From the supplement of paper PMC12764529 come the findings set out here.

Data set [1] in a line: folding stability dG unfold from chymotrypsin proteolysis; higher = more stable. In outline: (§1)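 Mini-proteins designed to be under 80 residues and free of cysteine were carried in a PA-tagged cDNA display construct and digested with trypsin and with chymotrypsin. Each protease was applied at 11 threefold-diluted concentrations, alongside a no-protease condition, before sequencing. K50 came from Bayesian fitting of the sequencing counts, and unfolding free energy was obtained by comparing it with a sequence-predicted unfolded-state K50 and a shared folded-state K50, for each protease separately or for both together. Designs were retained only if their AlphaFold2 dimer inter-PAE exceeded 15.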

Data set [2] is described as follows: folding stability dG unfold (combined trypsin and chymotrypsin); higher = more stable. The method, boiled down: as §1
Data set [3] is described as follows: folding stability dG unfold from trypsin proteolysis; higher = more stable. The method, boiled down: as §1

± gives the half width of the 95% confidence interval.

Turning to “SAGGSAGNPVPKVTVTDVTFGIPESDPSLLEKKAEEVAAELNKPELTVTITEYDPATYTFTITVVSSAGGSA [r15_563_JUSTAS]”, the “folding stability dG unfold” value in data set [1] is 1.89 ± 0.07 kcal/mol; in data set [2], 1.48 ± 0.059 kcal/mol; in data set [3], 0.648 ± 0.021 kcal/mol.

On to “SAGGSAGPTTTPTTYARITATLRKGGETITVELEVPTSVVEEAVEALAKELGVEIEKVEVTLTEERSAGGSA [r15_535_JUSTAS]”, for which the “folding stability dG unfold” value came to 2.4 ± 0.042 kcal/mol in data set [1], 2.3 ± 0.08 kcal/mol in data set [2] and 2.08 ± 0.027 kcal/mol in data set [3].

Turning to “SAGGSAGQKIQIERVQWNPEEGYFFIRIRYPGNGREIEHHIRLDNIEIELPPGAKITDIEIYPLPNSAGGSA [r15_959_TrROS]”, the “folding stability dG unfold” value in data set [1] stood at 1.83 ± 0.12 kcal/mol; in data set [2] it was 1.96 ± 0.13 kcal/mol; in data set [3], 1.8 ± 0.079 kcal/mol.

Turning to “SAGGSAGSLSPIGEHPYTLPDGSRITVPIYRDPATGEIVVEVETETEEEDISEKAEEYAEKVREALSAGGSA [r15_529_JUSTAS]”, the “folding stability dG unfold” value in data set [1] was -0.571 ± 0.45 kcal/mol; in data set [2], -0.25 ± 0.14 kcal/mol; in data set [3], -0.0147 ± 0.048 kcal/mol.

Regarding “SAGGSAGSMPVEVTVTITVKDKNGTVLGTFPIKITVTSEEELEAKIKELKEKLKKEGYIVEKVDVVSAGGSA [r15_1054_JUSTAS]”, the “folding stability dG unfold” value in data set [1] amounted to 2.65 ± 0.041 kcal/mol; in data set [2] it was 3.24 ± 0.091 kcal/mol; in data set [3], 3.85 ± 0.17 kcal/mol.

In the case of “SAGGSAGTITIMFPIPPGKEVKMKFLFYIPDGYIFNVDITQTGPGYITITIPIYRLPENAKDPDLISAGGSA [r15_909_TrROS]”, the “folding stability dG unfold” value worked out at 4.78 ± 0.18 kcal/mol in data set [1], 4.43 ± 0.26 kcal/mol in data set [2] and 3.2 ± 0.3 kcal/mol in data set [3].

Turning to “SAGGSAGTVKFKQPFPFYDPGNGWPFPIDIKITVEYKPDPNGEPKWQITKIEIKMPEGSPALKDLISAGGSA [r15_258_TrROS]”, the “folding stability dG unfold” value in data set [1] is 2.24 ± 0.048 kcal/mol; in data set [2], 2 ± 0.14 kcal/mol; in data set [3], 1.82 ± 0.11 kcal/mol.

With “SAGGSAGVKSSSPNGLTLEFPFESEEEVEEAVKEIKKAFPENYEVKIEIEKSEKILKVKIIVKKKDSAGGSA [r15_80_TrMRF]”, the “folding stability dG unfold” value was 2.14 ± 0.061 kcal/mol in data set [1], 1.9 ± 0.091 kcal/mol in data set [2] and 1.08 ± 0.04 kcal/mol in data set [3].

For the sequence “SAGGSAGVVKGRIEITFVVPPDAPGVEELARETVKRIGFDAENVEILKVERLPDGSYRVTLLLDAPSAGGSA [r15_654_TrMRF]”, the “folding stability dG unfold” value worked out at 4.47 ± 0.052 kcal/mol in data set [1], 4.21 ± 0.071 kcal/mol in data set [2] and 3.17 ± 0.059 kcal/mol in data set [3].

Take “SAGGSAGWVTFDILFPGKTIEEAKEFIEQIPPEFMNNIKKIEIDEIHPVGGWYHVTLTIEVPPGMKSAGGSA [r15_244_TrROS]”: the entries for the “folding stability dG unfold” value in data set [1], in data set [2] and in data set [3] were 2.06 ± 0.049 kcal/mol, 1.71 ± 0.16 kcal/mol and 0.743 ± 0.14 kcal/mol, respectively.

On to “SAGGSAIEPGQKVLVLFPEDGGLATLTFDPTTRTVEIEVGGERRTYPVDSLQDVLDELGAEVLSTDSAGGSA [r15_500_TrMRF]”, for which the “folding stability dG unfold” value came out at 1.74 ± 0.037 kcal/mol in data set [1], 1.82 ± 0.072 kcal/mol in data set [2] and 2.12 ± 0.037 kcal/mol in data set [3].

Consider “SAGGSAIPFPPGAKVKKIEMHEKKDDNKPRYVMIIKWEGGNIMVFQMDPGDGNFKPIGWVPLDDLKSAGGSA [r15_777_TrROS]”, for which the “folding stability dG unfold” value in data set [1] stood at 2.33 ± 0.058 kcal/mol; in data set [2], 1.95 ± 0.12 kcal/mol; in data set [3], 0.508 ± 0.07 kcal/mol.

Turning to “SAGGSAIPPDNVKEEREITDPDDDTKIKVWRYPNDGRYWVQVYNKKGEPKWKQLGPMPANQAEDLISAGGSA [r15_295_TrROS]”, the “folding stability dG unfold” value is -0.31 ± 0.38 kcal/mol in data set [1], -0.057 ± 0.23 kcal/mol in data set [2] and 0.0985 ± 0.35 kcal/mol in data set [3].

“SAGGSAISEEEPFVKIKVELESEPKEIILPKSDIVKIEVDEPDKIATIYLPSTGKFFPFKVLSVENSAGGSA [r15_495_TrMRF]”: the figures for the “folding stability dG unfold” value in data set [1], in data set [2] and in data set [3] were -0.343 ± 0.44 kcal/mol, -0.0342 ± 0.27 kcal/mol and 0.332 ± 0.079 kcal/mol, respectively.

With “SAGGSAITLEDLKNAEIVKPEVMPFPDNGMWMPTWKLRDPGNGKEFVFTFMYNPGNGEPQWSLVPVSAGGSA [r15_170_TrROS]”, the entries for the “folding stability dG unfold” value in data set [1], in data set [2] and in data set [3] were 1.36 ± 0.1 kcal/mol, 1.2 ± 0.15 kcal/mol and 1.16 ± 0.053 kcal/mol, respectively.

For the sequence “SAGGSAKAEEIAKLLKELGFKEVKIEKDKETNKVTITVKKKDGSEIKITIDKKTKKIVKIEIKPKKSAGGSA [r15_648_TrROS_Hall]”, the entries for the “folding stability dG unfold” value in data set [1], in data set [2] and in data set [3] were 1.78 ± 0.27 kcal/mol, 1.99 ± 0.25 kcal/mol and 1.82 ± 0.067 kcal/mol, respectively.

Consider “SAGGSAKDILDQLKISDVHESNGMRTITLEMPGNNLPPDEIREIFEELGYEVEINPKNGRITFTIPSAGGSA [r15_599_TrROS]”, for which the “folding stability dG unfold” value in data set [1] came out at 1.83 ± 0.02 kcal/mol; in data set [2] it was 1.95 ± 0.039 kcal/mol; in data set [3] it was 2.09 ± 0.051 kcal/mol.

In the case of “SAGGSAKEEIRLVIEVDGKLIEITIPKDKITKVEFDKETGKITITVKVNGKELKLVFTDGKAKLVESAGGSA [r15_598_TrROS_Hall]”, the “folding stability dG unfold” value in data set [1] is 2.6 ± 0.12 kcal/mol; in data set [2], 2.47 ± 0.17 kcal/mol; in data set [3] it was 2.27 ± 0.14 kcal/mol.

As to “SAGGSAKEIKAEVKVDPETGTVTVKVYYDGKLVAEATATVEPNGEIKEVNFFFEVDPETGKLIVTGSAGGSA [r15_770_TrMRF]”, the “folding stability dG unfold” value is 3.07 ± 0.059 kcal/mol in data set [1], 2.97 ± 0.066 kcal/mol in data set [2] and 2.73 ± 0.12 kcal/mol in data set [3].

For “SAGGSAKEIKIEVVKVEYDKETKKVTVTLKIEVNGKKIEIKIEVDMTPEEVEEKVKKLAEELLKKLSAGGSA [r15_979_TrROS_Hall]”, the “folding stability dG unfold” value in data set [1] is 3.03 ± 0.14 kcal/mol; in data set [2] it was 3.14 ± 0.25 kcal/mol; in data set [3], 3.15 ± 0.2 kcal/mol.

Consider “SAGGSAKEIKPGEKIKVRNKETGKWFEATVTEVKKLENGELYVKVEVTIDGKTYTVTIPLKDIEVVSAGGSA [r15_62_TrROS_Hall]”, for which the “folding stability dG unfold” value was 4.72 ± 0.3 kcal/mol in data set [1], 4.88 ± 0.55 kcal/mol in data set [2] and 4.3 ± 0.37 kcal/mol in data set [3].

With “SAGGSAKEIKVEITYDPETNTITIKVYKDGKLVAEMTMKIEVNGKLIEVKVTLYLDPKTKKLVVKPSAGGSA [r15_770_TrROS_Hall]”, the “folding stability dG unfold” value in data set [1] is 3.3 ± 0.048 kcal/mol; in data set [2] it was 2.96 ± 0.13 kcal/mol; in data set [3], 1.94 ± 0.081 kcal/mol.

On to “SAGGSAKFKIVKIEKIEIEENGTIKIKVKLEDGSTFEIEIKVKIIPPPKPKKISLEELSEEERKKLSAGGSA [r15_41_TrROS_Hall]”, for which the entries for the “folding stability dG unfold” value in data set [1], in data set [2] and in data set [3] were 2.11 ± 0.097 kcal/mol, 1.8 ± 0.13 kcal/mol and 1.29 ± 0.053 kcal/mol, respectively.

For the sequence “SAGGSAKGPKTVTYEFKIKYGDKYYLIKVTVKLHEVKYDPKTKKYTLNLKPNDKLEIKVEIYELDDSAGGSA [r15_1040_TrMRF]”, the “folding stability dG unfold” value in data set [1] came out at 4.09 ± 0.086 kcal/mol; in data set [2], 3.7 ± 0.3 kcal/mol; in data set [3] it was 2.29 ± 0.26 kcal/mol.

Take “SAGGSAKIEIIKDPETGTYTIRLEKEIKPGQTLTITDENGETWKITSVSVEEVNGELYVTVKVEKVSAGGSA [r15_838_TrROS_Hall]”: the “folding stability dG unfold” value in data set [1] came out at 3.542 ± 0.026 kcal/mol; in data set [2] it was 3.19 ± 0.056 kcal/mol; in data set [3], 2.24 ± 0.048 kcal/mol.

With “SAGGSAKIKIITENGEELEIEVETKEELEKAVEALKKLLPPDAEIEVEVVEKDGKLIVKIKVKKKPSAGGSA [r15_80_TrROS_Hall]”, the figures for the “folding stability dG unfold” value in data set [1], in data set [2] and in data set [3] were 2.17 ± 0.12 kcal/mol, 1.85 ± 0.31 kcal/mol and 1.54 ± 0.13 kcal/mol, respectively.

On to “SAGGSAKIKITIEYDEETGEVRIKIEVDGKEYEITLSREELANMTIEELAKKLGVEIEEVEIYPVPSAGGSA [r15_801_TrROS_Hall]”, for which the “folding stability dG unfold” value is 2.92 ± 0.28 kcal/mol in data set [1], 3.35 ± 0.3 kcal/mol in data set [2] and 3.35 ± 0.24 kcal/mol in data set [3].

Take “SAGGSAKIRYIKVLLRFPPKGEKKIIVIPIENIPEDRPEELIELAKAIAEAFVEGTGAEVEGIEISSAGGSA [r15_1013_TrMRF]”: the “folding stability dG unfold” value in data set [1] amounted to 3.88 ± 0.072 kcal/mol; in data set [2] it was 4.05 ± 0.13 kcal/mol; in data set [3] it was 4.34 ± 0.2 kcal/mol.

For the sequence “SAGGSAKITVEVVVRSLEELEALVKALAPPGMEVEVKIVSVERRTVEVNGEKREVLVVRVEIEVKPSAGGSA [r15_95_TrROS_Hall]”, the “folding stability dG unfold” value in data set [1] was determined as 3.09 ± 0.17 kcal/mol; in data set [2], 3.9 ± 0.33 kcal/mol; in data set [3], 4.61 ± 0.37 kcal/mol.

As to “SAGGSAKKKIIEIKIKVKTKEEAKEAIEKLSEELKKKIKKIEIVEIKEKDGEYYVKIKIEVPPNEKSAGGSA [r15_244_TrROS_Hall]”, the “folding stability dG unfold” value in data set [1] stood at 2.32 ± 0.075 kcal/mol; in data set [2], 2.25 ± 0.14 kcal/mol; in data set [3] it was 1.97 ± 0.063 kcal/mol.

On to “SAGGSAKKKTIELTIVIKIKKKPGETAEEIAKKILDALKKLLPPGAKIEIEVEVKDDYIVIKVKIESAGGSA [r15_739_TrROS_Hall]”, for which the figures for the “folding stability dG unfold” value in data set [1], in data set [2] and in data set [3] were 2.76 ± 0.09 kcal/mol, 2.69 ± 0.13 kcal/mol and 2.49 ± 0.14 kcal/mol, respectively.

In the case of “SAGGSAKKLKITIVADSEEEARRLAEELARLLRELLPDGSELEVEIEVRVFRPPPPPLPSLEELLASAGGSA [r15_663_TrROS_Hall]”, the “folding stability dG unfold” value in data set [1] was 3.83 ± 0.12 kcal/mol; in data set [2] it was 3.49 ± 0.18 kcal/mol; in data set [3] it was 3.2 ± 0.21 kcal/mol.

As to “SAGGSAKKPKIKIKIKITNENGEKIEIEIEAETEEEALEAAKKLAEELAKKPNIKEVKIEITEIEPSAGGSA [r15_698_TrROS_Hall]”, the “folding stability dG unfold” value in data set [1] is 2.19 ± 0.1 kcal/mol; in data set [2], 2.07 ± 0.096 kcal/mol; in data set [3], 1.74 ± 0.067 kcal/mol.

As to “SAGGSAKKPKPIYLKLTITLSEEEAKKLAEELAEELKKLFPDVEIVEIKVEKDENGNVTVTIYVRLSAGGSA [r15_718_TrROS_Hall]”, the “folding stability dG unfold” value in data set [1] was 4.57 ± 0.14 kcal/mol; in data set [2] it was 4.25 ± 0.28 kcal/mol; in data set [3] it was 3.14 ± 0.22 kcal/mol.

On to “SAGGSAKKVEKVTVTVLIEKDGKLYLVRVTVTRPKVKYDKKTGKFTVTLKPGEKVEIKVEVVELPESAGGSA [r15_1040_TrROS_Hall]”, for which the “folding stability dG unfold” value in data set [1] is 3.7 ± 0.12 kcal/mol; in data set [2] it was 3.62 ± 0.24 kcal/mol; in data set [3], 2.65 ± 0.21 kcal/mol.
